One series has as its target T1, SaTTM (Saci_0718) (Sulfolobus acidocaldarius, UniProt Q4JAT2).
T1 construct: full ORF, C-terminal His6 (pSVA1028), expressed in E. coli BL21-Gold (DE3), heat step, IMAC, SEC; homodimer of 56 kDa
The series can be described thus: X-ray crystal structure of the complex. The series is classed as binding. The note with it: 10 mM CaCl2, 5 mM PPi, pH 4.6, 4 °C; also 10 mM MgCl2 crystal without bound Mg2+; closed tunnel, active site.

Series [1] deals with the molecule itself. The series can be described thus: SEC; analytical Superdex 200 10/300 GL, SEC buffer (200 mM NaCl, 50 mM Tris, pH 9.0), compared with standards.
Substrate in series [2]: O=P(O)(O)OP(=O)(O)OP(=O)(O)O
The series is described as follows: malachite green phosphate release, Michaelis-Menten fit. The series is classed as biochemical, Sulfolobus acidocaldarius. The settings on record: 2 mM MgCl2, 50 mM Tris, 200 mM NaCl, pH 8.6, 75 °C, 5 nM enzyme.

The values that follow come from article PMC8233210, “The archaeal triphosphate tunnel metalloenzyme SaTTM defines structural determinants for the diverse activities in the CYTH protein family” (The Journal of Biological Chemistry, 2021).

For the molecule `O=P(O)(O)OP(=O)(O)O` [PPi, pyrophosphate], the “X-ray crystal structure of the complex” value on SaTTM (Saci_0718) is reported as “we determined crystal structures of SaTTM in complex with pyrophosphate”.

B1: Sulfolobus acidocaldarius triphosphate tunnel metalloenzyme (SaTTM) (enzyme, Sulfolobus acidocaldarius DSM 639, UniProt Q4JAT2 1-185, looked up)
chain: MSYIEREIKLRVISPSLEEIEERIRNNYTFINEEHQIDIYYNNPIRDFRKSDEALRLRNTNGKVILTYKGPKQSKETKTREEIEVEVSDLHKMDLILRKLGFIRSFQVEKIRKNYKYADFIISLDSIKELGEFIEIEGINKTEKELISFVDEFVKKHQIQYEKTIKSYLELLVEHAKKTNNSNTH
notes: SaTTM (Saci_0718), CYTH ortholog of Sulfolobus acidocaldarius DSM 639; ORF amplified from the genome and cloned NcoI/BamHI into pSA4 to give pSVA1028; No step that removes the His6 tag is described; The NcoI cloning site may have changed the residue after the first methionine; also called Saci_0718; S. acidocaldarius CYTH enzyme; source: E. coli BL21-Gold (DE3), purified (heat step 70 °C, Ni-NTA, …)
Turning to B1, the stoichiometry N (usually a count of units in the complex or per binding partner) in series [1] amounted to 2. Besides, in series [2], the Km was 41.0 (95% CI 29.8 to 55.4) μM and the kcat (in general, the maximal rate divided by the concentration of active sites) amounted to 5934 s⁻¹.
